Test results reported in US20060069024A1 (PURDUE RESEARCH FOUNDATION, published 2006).

What was measured:
[1] = target: T1, PHO36 (endogenous, wild-type strain BWG7a) (Saccharomyces cerevisiae, UniProt Q12442 1-317); assay: cell-based or functional assay
T1 sequence (looked up): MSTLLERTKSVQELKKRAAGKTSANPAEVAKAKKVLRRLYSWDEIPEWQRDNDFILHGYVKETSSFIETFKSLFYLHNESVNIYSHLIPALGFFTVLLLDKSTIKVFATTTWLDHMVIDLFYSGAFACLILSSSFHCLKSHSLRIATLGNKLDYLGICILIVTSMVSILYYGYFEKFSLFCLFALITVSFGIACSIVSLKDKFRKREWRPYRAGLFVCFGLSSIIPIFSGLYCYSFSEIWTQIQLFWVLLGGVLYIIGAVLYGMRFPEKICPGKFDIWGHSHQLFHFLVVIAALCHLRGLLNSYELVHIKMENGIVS

[2] = target: T2, PHO36t (product of the truncated PHO36 cDNA isolated in the screen) (Saccharomyces cerevisiae, UniProt Q12442 116-317, limits assumed); assay: cell-based or functional assay
T2 sequence (looked up): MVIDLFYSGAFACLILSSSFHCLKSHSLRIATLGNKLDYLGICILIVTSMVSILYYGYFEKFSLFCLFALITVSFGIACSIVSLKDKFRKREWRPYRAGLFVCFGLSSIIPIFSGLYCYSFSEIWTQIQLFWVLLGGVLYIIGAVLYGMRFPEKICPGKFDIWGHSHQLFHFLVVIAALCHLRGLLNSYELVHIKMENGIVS

STE7-Myc fusion protein = target: T3, STE7-Myc fusion protein (Saccharomyces cerevisiae, UniProt P06784 1-515, limits assumed); assay: pull-down with osmotin-Sepharose 4B, anti-myc (myc1-9E10) immunoblot
T3 construct: Used as a cell extract of BWG7a expressing the fusion, as a control for the c-myc tag; also called c-myc tagged STE7; pNC267 product; not shown: Myc tag
T3 sequence (looked up): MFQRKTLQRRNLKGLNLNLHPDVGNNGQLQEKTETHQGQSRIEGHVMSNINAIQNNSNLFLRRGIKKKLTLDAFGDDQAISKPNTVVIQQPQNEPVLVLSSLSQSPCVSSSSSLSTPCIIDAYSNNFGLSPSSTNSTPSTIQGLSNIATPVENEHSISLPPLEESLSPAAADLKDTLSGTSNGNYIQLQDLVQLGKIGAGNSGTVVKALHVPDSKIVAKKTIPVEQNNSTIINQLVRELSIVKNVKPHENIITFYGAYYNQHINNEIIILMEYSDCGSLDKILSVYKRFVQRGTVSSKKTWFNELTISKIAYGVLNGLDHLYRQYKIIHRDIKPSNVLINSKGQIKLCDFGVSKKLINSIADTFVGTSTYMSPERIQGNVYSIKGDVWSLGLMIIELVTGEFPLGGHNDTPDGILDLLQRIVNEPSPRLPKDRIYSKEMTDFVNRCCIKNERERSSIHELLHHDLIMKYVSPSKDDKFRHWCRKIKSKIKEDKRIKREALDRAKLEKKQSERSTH
Protocol: FIG. 4: PHO36 Interacts Specifically with Osmotin In Vitro and In Vivo. A. Osmotin-Sepharose 4B was incubated with cell extract of the strain BWG7a expressing the fusion protein STE7-Myc (lane 1), total membrane fraction purified from the strain ΔPHO36 (lane 2) or total membrane fraction purified from the strain BWG7a expressing c-myc tagged PHO36 from the plasmid pPHO36MH (lanes 3-8) in the absence (lanes 1, 2, and 5) or presence of the competitor proteins A9 (100 μg, lane 3; or 10 μg, lane 7), osmotin (Osm; 100 μg, lane 4; or 10 μg, lane 6), or BSA (100 μg, lane 8). After extensive washing, bound proteins were dissociated, separated by SDS-PAGE and the c-Myc tag was immunodetected with mycl-9E10 antibodies. B. Spheroplasts (10⁹ml⁻¹) derived from the Δpho36 mutant (Δpho36), and the wild-type strain BWG7a carrying the plasmid pPHO36MH (pPHO36) were incubated with ³⁵S-osmotin (0.4 μM, 0.16 μCi) for 1 hr, without (none) or with a 10-fold molar excess of A9, BSA, or osmotin as competitors. After extensive washing, ³⁵S-osmotin retained on spheroplasts was counted.
Protein interaction assays in solution. Osmotin was coupled to CNBr-activated Sepharose 4B (Pharmacia Biotech) according to the manufacturer's instructions. […]

[3] = target: T4, PHO36MH (PHO36 with c-myc epitope and hexa-His tag fused in-frame at the C-terminus) (Saccharomyces cerevisiae, UniProt Q12442 1-317); assay: 35S-osmotin binding to yeast spheroplasts, scintillation counting, non-specific binding subtracted
T4 construct: whole, on cells; Overexpressed in BWG7a from the multicopy plasmid pPHO36MH; It was used as a detergent-solubilised total membrane fraction in the pull-down and on spheroplasts in the 35S-osmotin assay; Bands of about 36 and 72 kDa were read as monomers and dimers; also called c-myc tagged PHO36; recombinant PHO36MH; not shown: c-myc tag; hexa-His tag
T4 sequence (looked up): T1 sequence (looked up)
Protocol: After extensive washing, bound proteins were dissociated, separated by SDS-PAGE and the c-Myc tag was immunodetected with mycl-9E10 antibodies. B. Spheroplasts (10⁹ml⁻¹) derived from the Δpho36 mutant (Δpho36), and the wild-type strain BWG7a carrying the plasmid pPHO36MH (pPHO36) were incubated with ³⁵S-osmotin (0.4 μM, 0.16 μCi) for 1 hr, without (none) or with a 10-fold molar excess of A9, BSA, or osmotin as competitors. After extensive washing, ³⁵S-osmotin retained on spheroplasts was counted.
³⁵S-Osmotin Binding Assay. Osmotin was radiolabeled to a specific-activity of 12 Ci mmol⁻¹ using the ³⁵SLR reagent (Amersham), according to manufacturer's instructions. Yeast cells were grown YPD medium until A₆₀₀ₙₘ 0.6 and then harvested by centrifugation. The pellet was resuspended in 1M sorbitol (A₆₀₀ₙₘ 6) and treated with lyticase (100 U ml⁻¹). After digestion of the cell wall was completed, spheroplasts were collected by centrifugation, washed twice with 1M sorbitol and resuspended in 1M sorbitol (10⁹ml⁻¹). The binding reaction was initiated by the addition of 2 μl of 35S-osmotin (1 μCi, 3 μg) to 300 μl of spheroplasts (0.3×10⁹). […] Spheroplasts were collected by centrifugation, washed twice, resuspended 1M sorbitol (50 μl) and counted in a liquid scintillation counter in 5 ml of EcoLume™ (ICN Biomedicals). […]

B1: osmotin (ligand)
chain: ATIEVRNNCPYTVWAASTPIGGGRRLDRGQTWVINAPRGTKMARVWGRTNCNFNAAGRGTCQTGDCGGVLQCTGWGKPPNTLAEYALDQFSGLDFWDISLVDGFNIPMTFAPTNPSGGKCHAIHCTANINGECPRELRVPGGCNNPCTTFGGQQYCCTQGPCGPTFFSKFFKQRCPDAYSYPQDDPTSTFTCPGGSTNYRVIFCPNGQAHPNFPLEMPGSDEVAK
notes: Purified osmotin (26 kDa globular protein, mostly a monomer in solution); also called tobacco PR-5 protein; 35S-osmotin
- IC50 for osmotin of control cells transformed with the empty vector (viable counts after one hour of osmotin treatment, galactose medium) [1]: 0.6 µM
- IC50 for osmotin of the wild type strain (compared with the PHO36 disruptant) [1]: 0.6 µM
- IC50 for osmotin of cells overexpressing PHO36t (viable counts after one hour of osmotin treatment, galactose medium) [2]: 0.2 µM
- fold change of IC50 for osmotin, cells overexpressing PHO36t against control cells with the empty vector [2]: 3 fold
- binding result (STE7-Myc fusion protein): no binding
- fold 35S-osmotin bound, spheroplasts of the PHO36MH-overexpressing strain against the wild-type strain with empty vector [3]: ~3 times
